{
  "source": "paper PMC8400696",
  "molecules": {"B1": {"name": "S11c (S11 hairpin region) (ssDNA)", "DNA": "ACTGTAAAGCTCAGGACTTCGACAGG"}, "B2": {"name": "S51a (S51 full length) (ssDNA)", "DNA": "GGGAGACAAGAATAAACGCTCAAAGATAAAAAGGCTGTCTGAAAATTTTCGACAGGAGGCTCACAACAGGC"}, "B3": {"name": "S75a (S75 full length) (ssDNA)", "DNA": "GGGAGACAAGAATAAACGCTCAACTGGTATCTATATGAAGGTTGTAGCTTCGACAGGAGGCTCACAACAGGC"}, "B4": {"name": "S11a (S11 full length) (ssDNA)", "DNA": "GGGAGACAAGAATAAACGCTCAAGGCAACATACTGTAAAGCTCAGGACTTCGACAGGAGGCTCACAACAGGC"}, "B5": {"name": "S11b (S11 variable region) (ssDNA)", "DNA": "GGCAACATACTGTAAAGCTCAGGAC"}},
  "key": {"lipase": {"tested_on": "lipase", "experiment": "Ru(phen)2dppz fluorescence displacement", "conditions": "no displacement up to 250 µM; aptamer given as variable region, S11b inferred; Ru displacement: 50 nM aptamer in binding solution (composition not given), excitation 434 nm, emission 610 nm; thermal assay: binding solution, 1 h ambient …"}, "[1]": {"biological_target": "MUC1 variable tandem repeat (VTR) peptide (UniProt P15941)", "sequence (P15941 whole entry)": "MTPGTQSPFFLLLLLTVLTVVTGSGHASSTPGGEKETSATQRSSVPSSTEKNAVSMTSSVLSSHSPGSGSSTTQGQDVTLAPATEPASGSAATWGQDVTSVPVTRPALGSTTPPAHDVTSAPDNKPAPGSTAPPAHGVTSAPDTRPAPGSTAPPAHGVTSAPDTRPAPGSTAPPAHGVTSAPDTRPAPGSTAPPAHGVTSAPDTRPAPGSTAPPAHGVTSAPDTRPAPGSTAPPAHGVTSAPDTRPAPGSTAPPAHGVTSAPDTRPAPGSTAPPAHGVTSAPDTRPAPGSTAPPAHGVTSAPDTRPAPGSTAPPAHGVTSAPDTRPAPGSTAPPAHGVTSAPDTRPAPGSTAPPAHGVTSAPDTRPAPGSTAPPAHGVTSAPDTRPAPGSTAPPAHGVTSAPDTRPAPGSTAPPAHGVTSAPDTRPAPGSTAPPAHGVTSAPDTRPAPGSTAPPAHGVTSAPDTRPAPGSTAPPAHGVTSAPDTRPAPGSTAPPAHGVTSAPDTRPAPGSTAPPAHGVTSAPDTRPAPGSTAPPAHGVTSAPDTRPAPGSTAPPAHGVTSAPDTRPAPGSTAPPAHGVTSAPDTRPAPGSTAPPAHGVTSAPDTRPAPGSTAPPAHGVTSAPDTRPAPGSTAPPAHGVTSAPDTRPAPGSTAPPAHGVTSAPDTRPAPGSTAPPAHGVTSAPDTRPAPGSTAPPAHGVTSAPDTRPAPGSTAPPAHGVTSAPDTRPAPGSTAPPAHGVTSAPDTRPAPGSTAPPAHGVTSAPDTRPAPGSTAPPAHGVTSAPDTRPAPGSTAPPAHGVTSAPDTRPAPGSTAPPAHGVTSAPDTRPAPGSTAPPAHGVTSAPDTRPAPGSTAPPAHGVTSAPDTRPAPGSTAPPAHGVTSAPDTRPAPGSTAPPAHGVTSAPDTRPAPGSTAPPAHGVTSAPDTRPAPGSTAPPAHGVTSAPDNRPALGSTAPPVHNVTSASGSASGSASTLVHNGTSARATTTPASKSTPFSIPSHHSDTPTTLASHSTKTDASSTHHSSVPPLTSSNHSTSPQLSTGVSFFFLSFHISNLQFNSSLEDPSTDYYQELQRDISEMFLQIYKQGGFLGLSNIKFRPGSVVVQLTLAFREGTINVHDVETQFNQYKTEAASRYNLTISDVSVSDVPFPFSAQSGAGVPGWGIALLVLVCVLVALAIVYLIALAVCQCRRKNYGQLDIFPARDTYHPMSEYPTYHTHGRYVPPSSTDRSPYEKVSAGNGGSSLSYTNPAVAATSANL", "experiment": "Ru(phen)2dppz fluorescence displacement", "conditions": "Ru dye; Ru displacement: 50 nM aptamer in binding solution (composition not given), excitation 434 nm, emission 610 nm; thermal assay: binding solution, 1 h ambient …"}, "[2]": {"tested_on": "S51 (S51a) (DNA, aptamer) GGGAGACAAGAATAAACGCTCAAAGATAAAAAGGCTGTCTGAAAATTTTCGACAGGAGGCTCACAACAGGC", "experiment": "fluorescence titration of dye into aptamer, sigmoidal fit", "conditions": "binding solution (composition not given); 50 nM aptamer; ex 434 nm, em 610 nm; apparent"}, "[3]": {"tested_on": "S75 (S75a) (DNA, aptamer) GGGAGACAAGAATAAACGCTCAACTGGTATCTATATGAAGGTTGTAGCTTCGACAGGAGGCTCACAACAGGC", "experiment": "fluorescence titration of dye into aptamer, sigmoidal fit", "conditions": "binding solution (composition not given); 50 nM aptamer; ex 434 nm, em 610 nm; apparent"}, "[4]": {"tested_on": "S11 (S11a) (DNA, aptamer) GGGAGACAAGAATAAACGCTCAAGGCAACATACTGTAAAGCTCAGGACTTCGACAGGAGGCTCACAACAGGC", "experiment": "fluorescence titration of dye into aptamer, sigmoidal fit", "conditions": "binding solution (composition not given); 50 nM aptamer; ex 434 nm, em 610 nm; apparent"}, "MUC1/Y 10mer peptide [5]": {"biological_target": "T1, MUC1/Y 10mer peptide (UniProt P15941-7)", "T1 chain": "TEKNAFNSSL", "experiment": "thermal denaturation (SYBR Green I); 1:1000 aptamer:peptide; Tm 20 and 45 to 26 °C; Ru displacement: 50 nM aptamer in binding solution (composition not given), excitation 434 nm, emission 610 nm; thermal assay: binding solution, 1 h ambient then SYBR Green I, 3-100 °C; cells: PBS, 4 °C, 1 h", "conditions": "hairpin (m-fold)"}, "MUC1/Y 20mer peptide [6]": {"biological_target": "T2, MUC1/Y 20mer peptide (UniProt P15941-7)", "T2 chain": "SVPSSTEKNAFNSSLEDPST", "experiment": "thermal denaturation (SYBR Green I); 1:1000 aptamer:peptide; Tm 20 and 45 to 16 °C; Ru displacement: 50 nM aptamer in binding solution (composition not given), excitation 434 nm, emission 610 nm; thermal assay: binding solution, 1 h ambient then SYBR Green I, 3-100 °C; cells: PBS, 4 °C, 1 h", "conditions": "hairpin (m-fold)"}, "MUC1/Y 20mer peptide [7]": {"biological_target": "T2, MUC1/Y 20mer peptide", "experiment": "Ru(phen)2dppz fluorescence displacement; 1.5 µM Ru dye; Kd only in Figure 2C; Ru displacement: 50 nM aptamer in binding solution (composition not given), excitation 434 nm, emission 610 nm; thermal assay: binding solution, 1 h ambient then SYBR Green I, 3-100 °C; cells: PBS, 4 °C, 1 h", "conditions": "predicted hairpin (m-fold)"}, "MUC1/Y 20mer peptide [8]": {"biological_target": "T2, MUC1/Y 20mer peptide", "experiment": "Ru(phen)2dppz fluorescence displacement; 2 µM Ru dye; Kd only in Figure 2C; Ru displacement: 50 nM aptamer in binding solution (composition not given), excitation 434 nm, emission 610 nm; thermal assay: binding solution, 1 h ambient then SYBR Green I, 3-100 °C; cells: PBS, 4 °C, 1 h", "conditions": "predicted hairpin (m-fold)"}, "MUC1/Y 10mer peptide [9]": {"biological_target": "T1, MUC1/Y 10mer peptide", "experiment": "thermal denaturation (SYBR Green I); 1:1000 aptamer:peptide; Tm 35 to 43 °C; Ru displacement: 50 nM aptamer in binding solution (composition not given), excitation 434 nm, emission 610 nm; thermal assay: binding solution, 1 h ambient then SYBR Green I, 3-100 °C; cells: PBS, 4 °C, 1 h", "conditions": "predicted hairpin (m-fold)"}, "MUC1/Y 20mer peptide [10]": {"biological_target": "T2, MUC1/Y 20mer peptide", "experiment": "thermal denaturation (SYBR Green I); 1:1000 aptamer:peptide; Tm 35 to 30 °C; Ru displacement: 50 nM aptamer in binding solution (composition not given), excitation 434 nm, emission 610 nm; thermal assay: binding solution, 1 h ambient then SYBR Green I, 3-100 °C; cells: PBS, 4 °C, 1 h", "conditions": "predicted hairpin (m-fold)"}, "MUC1/Y 10mer peptide [11]": {"biological_target": "T1, MUC1/Y 10mer peptide", "experiment": "thermal denaturation (SYBR Green I); 1:1000 aptamer:peptide; Tm 21 to 7 and 20 °C; Ru displacement: 50 nM aptamer in binding solution (composition not given), excitation 434 nm, emission 610 nm; thermal assay: binding solution, 1 h ambient then SYBR Green I, 3-100 °C; cells: PBS, 4 °C, 1 h"}, "MUC1/Y 20mer peptide [12]": {"biological_target": "T2, MUC1/Y 20mer peptide", "experiment": "thermal denaturation (SYBR Green I); 1:1000 aptamer:peptide; Tm 21 to 16 °C; Ru displacement: 50 nM aptamer in binding solution (composition not given), excitation 434 nm, emission 610 nm; thermal assay: binding solution, 1 h ambient then SYBR Green I, 3-100 °C; cells: PBS, 4 °C, 1 h"}},
  "data": [
    {"molecule": "GGCAACATACTGTAAAGCTCAGGAC [S11b (S11 variable region)]", "values": [
      {"measurement": "Kd", "setting": "lipase", "result": "> 250000", "unit": "nM"},
      {"measurement": "binding signal (fold more peptide than MUC1/Y peptide)", "setting": "[1]", "result": "> 100"}
    ]},
    {"molecule": "[Ru+2].c1ccc2nc3c4cccnc4c4ncccc4c3nc2c1.c1cnc2c(c1)ccc1cccnc12.c1cnc2c(c1)ccc1cccnc12", "values": [
      {"measurement": "Kd", "setting": "[2]", "result": 440, "unit": "nM"},
      {"measurement": "Kd", "setting": "[3]", "result": 240, "unit": "nM"},
      {"measurement": "Kd", "setting": "[4]", "result": 350, "unit": "nM"}
    ]},
    {"molecule": "B1", "values": [
      {"measurement": "binding result", "setting": "MUC1/Y 10mer peptide [5]", "result": "binds"},
      {"measurement": "binding result", "setting": "MUC1/Y 20mer peptide [6]", "result": "binds"}
    ]},
    {"molecule": "B2", "values": [
      {"measurement": "binding result", "setting": "MUC1/Y 20mer peptide [7]", "result": "binds"}
    ]},
    {"molecule": "B3", "values": [
      {"measurement": "binding result", "setting": "MUC1/Y 20mer peptide [8]", "result": "binds"}
    ]},
    {"molecule": "B4", "values": [
      {"measurement": "binding result", "setting": "MUC1/Y 10mer peptide [9]", "result": "binds"},
      {"measurement": "binding result", "setting": "MUC1/Y 20mer peptide [10]", "result": "binds"}
    ]},
    {"molecule": "B5", "values": [
      {"measurement": "binding result", "setting": "MUC1/Y 10mer peptide [11]", "result": "binds"},
      {"measurement": "binding result", "setting": "MUC1/Y 20mer peptide [12]", "result": "binds"}
    ]}
  ]
}
